US20130157953A1, “TREATMENT OF CARDIAC CONDITIONS” (Zealand Pharma A/S, priority 2010, published 2013)
Numbered stars: 1 amine (or outer) side, 2 acyl side, 3 side chain; on linkers, the order of the positions; unused ones are H or OH. Bridge positions count the residues as written; N and C are the ends. Square brackets hold non-standard residues; d marks the D form. Side chains are listed from the residue outwards. Peptide text beside a SMILES is read from it. * marks the point of attachment. γGlu = O=C(O)[C@H](CCC(=O)[*:2])N[*:1]; εLys = N[C@@H](CCCCN[*:1])C(=O)[*:2]; Palmitoyl = CCCCCCCCCCCCCCCC(=O)*; Lauroyl = CCCCCCCCCCCC(=O)*; Aib = CC(C)(N)C(=O)O; Aoc = NCCCCCCCC(=O)O

B1: Compound 217 (peptide)
peptide: H-H[Aib]QGTFTSDYSKYLDSK([εLys-Palmitoyl])AAHDFVEWLLSA-NH2
SMILES: CCCCCCCCCCCCCCCC(=O)NCCCC[C@H](N)C(=O)NCCCC[C@H](NC(=O)[C@H](CO)NC(=O)[C@H](CC(=O)O)NC(=O)[C@H](CC(C)C)NC(=O)[C@H](Cc1ccc(O)cc1)NC(=O)[C@H](CCCCN)NC(=O)[C@H](CO)NC(=O)[C@H](Cc1ccc(O)cc1)NC(=O)[C@H](CC(=O)O)NC(=O)[C@H](CO)NC(=O)[C@@H](NC(=O)[C@H](Cc1ccccc1)NC(=O)[C@@H](NC(=O)CNC(=O)[C@H](CCC(N)=O)NC(=O)C(C)(C)NC(=O)[C@@H](N)Cc1c[nH]cn1)[C@@H](C)O)[C@@H](C)O)C(=O)N[C@@H](C)C(=O)N[C@@H](C)C(=O)N[C@@H](Cc1c[nH]cn1)C(=O)N[C@@H](CC(=O)O)C(=O)N[C@@H](Cc1ccccc1)C(=O)N[C@H](C(=O)N[C@@H](CCC(=O)O)C(=O)N[C@@H](Cc1c[nH]c2ccccc12)C(=O)N[C@@H](CC(C)C)C(=O)N[C@@H](CC(C)C)C(=O)N[C@@H](CO)C(=O)N[C@@H](C)C(N)=O)C(C)C
B2: Compound 210 (peptide)
peptide: H-H[Aib]QGTFTSDYSKYLDSK([γGlu-Palmitoyl])AAHDFVEWLLKA-NH2
modifications: lactam 24-28
SMILES: CCCCCCCCCCCCCCCC(=O)N[C@@H](CCC(=O)NCCCC[C@H](NC(=O)[C@H](CO)NC(=O)[C@H](CC(=O)O)NC(=O)[C@H](CC(C)C)NC(=O)[C@H](Cc1ccc(O)cc1)NC(=O)[C@H](CCCCN)NC(=O)[C@H](CO)NC(=O)[C@H](Cc1ccc(O)cc1)NC(=O)[C@H](CC(=O)O)NC(=O)[C@H](CO)NC(=O)[C@@H](NC(=O)[C@H](Cc1ccccc1)NC(=O)[C@@H](NC(=O)CNC(=O)[C@H](CCC(N)=O)NC(=O)C(C)(C)NC(=O)[C@@H](N)Cc1c[nH]cn1)[C@@H](C)O)[C@@H](C)O)C(=O)N[C@@H](C)C(=O)N[C@@H](C)C(=O)N[C@@H](Cc1c[nH]cn1)C(=O)N[C@@H](CC(=O)O)C(=O)N[C@@H](Cc1ccccc1)C(=O)N[C@H](C(=O)N[C@H]1CCC(=O)NCCCC[C@@H](C(=O)N[C@@H](C)C(N)=O)NC(=O)[C@H](CC(C)C)NC(=O)[C@H](CC(C)C)NC(=O)[C@H](Cc2c[nH]c3ccccc23)NC1=O)C(C)C)C(=O)O
B3: Compound 216 (peptide)
peptide: H-H[Aib]QGTFTSDYSKYLDSK([Aoc-Palmitoyl])AAHDFVEWLLSA-NH2
SMILES: CCCCCCCCCCCCCCCC(=O)NCCCCCCCC(=O)NCCCC[C@H](NC(=O)[C@H](CO)NC(=O)[C@H](CC(=O)O)NC(=O)[C@H](CC(C)C)NC(=O)[C@H](Cc1ccc(O)cc1)NC(=O)[C@H](CCCCN)NC(=O)[C@H](CO)NC(=O)[C@H](Cc1ccc(O)cc1)NC(=O)[C@H](CC(=O)O)NC(=O)[C@H](CO)NC(=O)[C@@H](NC(=O)[C@H](Cc1ccccc1)NC(=O)[C@@H](NC(=O)CNC(=O)[C@H](CCC(N)=O)NC(=O)C(C)(C)NC(=O)[C@@H](N)Cc1c[nH]cn1)[C@@H](C)O)[C@@H](C)O)C(=O)N[C@@H](C)C(=O)N[C@@H](C)C(=O)N[C@@H](Cc1c[nH]cn1)C(=O)N[C@@H](CC(=O)O)C(=O)N[C@@H](Cc1ccccc1)C(=O)N[C@H](C(=O)N[C@@H](CCC(=O)O)C(=O)N[C@@H](Cc1c[nH]c2ccccc12)C(=O)N[C@@H](CC(C)C)C(=O)N[C@@H](CC(C)C)C(=O)N[C@@H](CO)C(=O)N[C@@H](C)C(N)=O)C(C)C
B4: Compound 214 (peptide)
peptide: H-H[Aib]QGTFTSDYSKYLDSK([γGlu-Lauroyl])AAHDFVEWLLSA-NH2
SMILES: CCCCCCCCCCCC(=O)N[C@@H](CCC(=O)NCCCC[C@H](NC(=O)[C@H](CO)NC(=O)[C@H](CC(=O)O)NC(=O)[C@H](CC(C)C)NC(=O)[C@H](Cc1ccc(O)cc1)NC(=O)[C@H](CCCCN)NC(=O)[C@H](CO)NC(=O)[C@H](Cc1ccc(O)cc1)NC(=O)[C@H](CC(=O)O)NC(=O)[C@H](CO)NC(=O)[C@@H](NC(=O)[C@H](Cc1ccccc1)NC(=O)[C@@H](NC(=O)CNC(=O)[C@H](CCC(N)=O)NC(=O)C(C)(C)NC(=O)[C@@H](N)Cc1c[nH]cn1)[C@@H](C)O)[C@@H](C)O)C(=O)N[C@@H](C)C(=O)N[C@@H](C)C(=O)N[C@@H](Cc1c[nH]cn1)C(=O)N[C@@H](CC(=O)O)C(=O)N[C@@H](Cc1ccccc1)C(=O)N[C@H](C(=O)N[C@@H](CCC(=O)O)C(=O)N[C@@H](Cc1c[nH]c2ccccc12)C(=O)N[C@@H](CC(C)C)C(=O)N[C@@H](CC(C)C)C(=O)N[C@@H](CO)C(=O)N[C@@H](C)C(N)=O)C(C)C)C(=O)O

Target: human glucagon-like peptide 1 receptor (GLP-1R) (human, UniProt P43220 24-463)
Assay: cell-based or functional assay
Details: not given

EC50 (nM) GLP-1R; cAMP content, HEK293 cells expressing human GLP-1R	Molecule
0.09 nM	B1
0.08 nM	B2
0.24 nM	B3
0.14 nM	B4

Target: human glucagon receptor (Glucagon-R) (human, UniProt P47871 26-477)
Assay: cell-based or functional assay
Details: not given

human glucagon receptor (Glucagon-R), sequence (P47871 26-477): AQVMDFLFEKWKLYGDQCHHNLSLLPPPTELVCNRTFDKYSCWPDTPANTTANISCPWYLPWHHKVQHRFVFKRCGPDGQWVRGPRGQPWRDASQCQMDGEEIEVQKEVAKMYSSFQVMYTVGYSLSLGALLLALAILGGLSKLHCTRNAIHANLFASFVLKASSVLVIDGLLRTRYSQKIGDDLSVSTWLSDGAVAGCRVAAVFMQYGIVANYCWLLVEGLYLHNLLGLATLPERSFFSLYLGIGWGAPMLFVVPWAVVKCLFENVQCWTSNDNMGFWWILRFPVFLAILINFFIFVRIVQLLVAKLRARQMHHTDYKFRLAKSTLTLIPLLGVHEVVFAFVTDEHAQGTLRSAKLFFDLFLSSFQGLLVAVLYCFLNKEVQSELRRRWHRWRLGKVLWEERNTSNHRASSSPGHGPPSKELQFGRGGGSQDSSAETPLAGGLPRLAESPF

EC50 (nM) GuR; cAMP content, HEK293 cells expressing the human glucagon receptor	Molecule
0.39 nM	B1
0.26 nM	B2
0.46 nM	B3
0.78 nM	B4

Target: T1, human GLP-1R (Homo sapiens, UniProt P43220)
T1 construct: expressed in transfected cells; host or cells: HEK293
Assay: cAMP formation in HEK293 cells expressing human GLP-1R
Format: cell-based
Details: 15 min at 37° C.
From the text: Similarly, activation of the GLP-1 receptor by a GLP-1 agonist will stimulate cellular cAMP formation. Thus, production of cAMP in suitable cells expressing one of these two receptors can be used to monitor the relevant receptor activity.
The skilled person will be aware of suitable assay formats, and examples are provided below. […] (Where sequences of precursor proteins are referred to, it should of course be understood that assays may make use of the mature protein, lacking the signal sequence).
On the day of analysis, growth medium was removed and the cells washed once with 200 μl Tyrode buffer. Cells were incubated in […] containing increasing concentrations of test peptides, 100 μM IBMX, and 6 mM glucose for 15 min at 37° C. The reaction was stopped by addition of 25 μl 0.5 M HCl and incubated on ice for 60 min. The cAMP content was estimated using the FlashPlate® cAMP kit from Perkin-Elmer. EC50 values were estimated by computer aided curve fitting.

T1 sequence (P43220 24-463): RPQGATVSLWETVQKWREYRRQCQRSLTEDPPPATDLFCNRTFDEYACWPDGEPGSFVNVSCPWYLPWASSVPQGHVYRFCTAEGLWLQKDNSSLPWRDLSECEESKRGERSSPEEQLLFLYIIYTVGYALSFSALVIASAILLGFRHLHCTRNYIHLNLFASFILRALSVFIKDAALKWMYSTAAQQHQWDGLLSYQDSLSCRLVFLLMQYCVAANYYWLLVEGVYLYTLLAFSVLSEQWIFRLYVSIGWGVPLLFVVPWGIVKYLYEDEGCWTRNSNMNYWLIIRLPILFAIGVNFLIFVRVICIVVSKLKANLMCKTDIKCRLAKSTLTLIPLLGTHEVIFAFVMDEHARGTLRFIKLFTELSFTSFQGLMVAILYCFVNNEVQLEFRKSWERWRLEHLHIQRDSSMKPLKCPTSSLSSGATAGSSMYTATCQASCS

EC50	Molecule
0.09 nM	CC(C)C[C@H](NC(=O)[C@H](CC(C)C)NC(=O)[C@H](Cc1c[nH]c2ccccc12)NC(=O)[C@H](CCC(=O)O)NC(=O)[C@@H](NC(=O)[C@H](Cc1ccccc1)NC(=O)[C@H](CC(=O)O)NC(=O)[C@H](Cc1c[nH]cn1)NC(=O)[C@H](C)NC(=O)[C@H](C)NC(=O)[C@H](CCCCN)NC(=O)[C@H](CO)NC(=O)[C@H](CC(=O)O)NC(=O)[C@H](CC(C)C)NC(=O)[C@H](Cc1ccc(O)cc1)NC(=O)[C@H](CCCCN)NC(=O)[C@H](CO)NC(=O)[C@H](Cc1ccc(O)cc1)NC(=O)[C@H](CC(=O)O)NC(=O)[C@H](CO)NC(=O)[C@@H](NC(=O)[C@H](Cc1ccccc1)NC(=O)[C@@H](NC(=O)CNC(=O)[C@H](CCC(N)=O)NC(=O)[C@@H](CO)NC(=O)[C@@H](N)Cc1c[nH]cn1)[C@@H](C)O)[C@@H](C)O)C(C)C)C(=O)N[C@@H](CCCNC(=N)N)C(=O)N[C@@H](C)C(N)=O [Compound 44] (H-H[dS]QGTFTSDYSKYLDSKAAHDFVEWLLRA-NH2)
0.2 nM	CCCCCCCCCCCCCCCC(=O)N[C@@H](CCC(=O)NCCCC[C@H](NC(=O)[C@H](CC(=O)O)NC(=O)[C@H](CC(C)C)NC(=O)[C@H](Cc1ccc(O)cc1)NC(=O)[C@H](CCCCN)NC(=O)[C@H](CO)NC(=O)[C@H](Cc1ccc(O)cc1)NC(=O)[C@H](CC(=O)O)NC(=O)[C@H](CO)NC(=O)[C@@H](NC(=O)[C@H](Cc1ccccc1)NC(=O)[C@@H](NC(=O)CNC(=O)[C@H](CCC(N)=O)NC(=O)[C@H](CO)NC(=O)[C@@H](N)Cc1c[nH]cn1)[C@@H](C)O)[C@@H](C)O)C(=O)N[C@@H](CCCCN)C(=O)N[C@@H](C)C(=O)N[C@@H](C)C(=O)N[C@@H](Cc1c[nH]cn1)C(=O)N[C@@H](CC(=O)O)C(=O)N[C@@H](Cc1ccccc1)C(=O)N[C@H](C(=O)N[C@@H](CCC(=O)O)C(=O)N[C@@H](Cc1c[nH]c2ccccc12)C(=O)N[C@@H](CC(C)C)C(=O)N[C@@H](CC(C)C)C(=O)N[C@@H](CCCNC(=N)N)C(=O)N[C@@H](C)C(N)=O)C(C)C)C(=O)O [Compound 202] (H-HSQGTFTSDYSKYLDK([γGlu-Palmitoyl])KAAHDFVEWLLRA-NH2)
